Measurements: publication PMC3867821

Target: KLF4 (UniProt Q60793)
Experiment: anti-HA co-IP, STAT3 blot
Conditions: reference: wild-type FLAG-STAT3; sites Y705

- binding against the reference: lost
Substance: STAT3 (from UniProt P42227) Y705F
